Source: patent US20120311746A1

Molecular target: receptors in brush border membrane vesicles produced from Spodoptera frugiperda (fall armyworm, FAW)
Experiment: competitive displacement of 0.5 nM ^125I Cry1Be (competitor) from FAW BBMV

## Cry1Fa protein from Bacillus thuringiensis (from UniProt Q03746 28-605) (ligand)
  concentration at which displacement of ^125I Cry1Be is effective: > 100 nM
